Experimental data published in PMC9329959, “A Feedback Regulatory Loop Involving dTrbd/dTak1 in Controlling IMD Signaling in Drosophila Melanogaster” (Frontiers in Immunology, 2022).

Molecular target: the molecule itself
Assay: SDD-AGE; purified proteins loaded in 0.5 x TBE, 10% glycerol, 2% SDS at room temperature; 1.5% agarose gel with 0.1% SDS; immunoblot

B1: GST-tagged dTrbd^FL (enzyme, Drosophila melanogaster, UniProt Q9VH90 1-778, looked up)
chain: MCDTKDDAQKWKCETCTYENYPSSLKCTMCQASKPLLNEDIFRLSPAQESCTVAEEAAAVEVAVMSPTPSSTCYSLQPQSQARQSNVADSEKWPCKVCTYLNWPRSLRCVQCCTKRGGEAIERGKKDMDNEADGDRAGEALQALRISGSEENLANKPVQLIGATASHRLSLSRGIDDATHLNNLANASHNQSQSQHRQPVLQQQMQLQLQPQQQRESSSSAAVPPQQQKQCYVSKWACNSCTYENWPRSIKCSMCGKTREREISGSQNDLHASSSLNSQEENQQQLQQPNVDTVSVNNSFNKKHIYQLGSSETINNCDTLQERQERRQRQIRRQVDWQWLNACLGVVENNYSAVEAYLSCGGNPARSLTSTEIAALNRNSAFDVGHTLIHLAIRFHREEMLPMLLDQISGSGPGIKRVPSYVAPDLAADIRRHFANTLRLRKSGLPCHYVQKHATFALPAEIEELPIPIQEQLYDELLDRDAQKQLETPPPALNWSLEITARLSSRMFVLWNRSAGDCLLDSAMQATWGVFDRDNILRRALADTLHQCGHVFFTRWKEYEMLQASMLHFTLEDSQFEEDWSTLLSLAGQPGSSLEQLHIFALAHILRRPIIVYGVKYVKSFRGEDIGYARFEGVYLPLFWDQNFCTKSPIALGYTRGHFSALVPMEPFTRIDGRRDDVEDVTYLPLMDCELKLLPIHFLTQSEVGNEESMMRQWLDVCVTDGGLLVAQQKLSKRPLLVAQMLEEWLNHYRRIAQVITAPFIRRPQITHYSSDGDSDEE
notes: dTrbd, Drosophila deubiquitinase, full length; also called GST-dTrbd^FL; source: E. coli BL21, purified (Glutathione Sepharose 4B)
B1: binds.
